# Results as given in IntAct's records for PubMed 29039417.
# B1: BBSome complex member BBS2 (Homo sapiens), Q9BXC9 (parent)
# chain: MLLPVFTLKLRHKISPRMVAIGRYDGTHPCLAAATQTGKVFIHNPHTRNQHVSASRVFQSPLESDVSLLSINQAVSCLTAGVLNPELGYDALLVGTQTNLLAYDVYNNSDLFYREVADGANAIVLGTLGDISSPLAIIGGNCALQGFNHEGSDLFWTVTGDNVNSLALCDFDGDGKKELLVGSEDFDIRVFKEDEIVAEMTETEIVTSLCPMYGSRFGYALSNGTVGVYDKTSRYWRIKSKNHAMSIHAFDLNSDGVNELITGWSNGKVDARSDRTGEVIFKDNFSSAIAGVVEGDYRMDGHIQLICCSVDGEIRGYLPGTAEMRGNLMDTSAEQDLIRELSQKKQNLLLELRNYEENAKAELASPLNEADGHRGIIPANTRLHTTLSVSLGNETQTAHTELRISTSNDTIIRAVLIFAEGIFTGESHVVHPSIHNLSSSICIPIVPPKDVPVDLHLKAFVGYRSSTQFHVFESTRQLPRFSMYALTSLDPASEPISYVNFTIAERAQRVVVWLGQNFLLPEDTHIQNAPFQVCFTSLRNGGHLHIKIKLSGEITINTDDIDLAGDIIQSMASFFAIEDLQVEADFPVYFEELRKVLVKVDEYHSVHQKLSADMADHSNLIRSLLVGAEDARLMRDMKTMKSRYMELYDLNRDLLNGYKIRCNNHTELLGNLKAVNQAIQRAGRLRVGKPKNQVITACRDAIRSNNINTLFKIMRVGTASS
# partner: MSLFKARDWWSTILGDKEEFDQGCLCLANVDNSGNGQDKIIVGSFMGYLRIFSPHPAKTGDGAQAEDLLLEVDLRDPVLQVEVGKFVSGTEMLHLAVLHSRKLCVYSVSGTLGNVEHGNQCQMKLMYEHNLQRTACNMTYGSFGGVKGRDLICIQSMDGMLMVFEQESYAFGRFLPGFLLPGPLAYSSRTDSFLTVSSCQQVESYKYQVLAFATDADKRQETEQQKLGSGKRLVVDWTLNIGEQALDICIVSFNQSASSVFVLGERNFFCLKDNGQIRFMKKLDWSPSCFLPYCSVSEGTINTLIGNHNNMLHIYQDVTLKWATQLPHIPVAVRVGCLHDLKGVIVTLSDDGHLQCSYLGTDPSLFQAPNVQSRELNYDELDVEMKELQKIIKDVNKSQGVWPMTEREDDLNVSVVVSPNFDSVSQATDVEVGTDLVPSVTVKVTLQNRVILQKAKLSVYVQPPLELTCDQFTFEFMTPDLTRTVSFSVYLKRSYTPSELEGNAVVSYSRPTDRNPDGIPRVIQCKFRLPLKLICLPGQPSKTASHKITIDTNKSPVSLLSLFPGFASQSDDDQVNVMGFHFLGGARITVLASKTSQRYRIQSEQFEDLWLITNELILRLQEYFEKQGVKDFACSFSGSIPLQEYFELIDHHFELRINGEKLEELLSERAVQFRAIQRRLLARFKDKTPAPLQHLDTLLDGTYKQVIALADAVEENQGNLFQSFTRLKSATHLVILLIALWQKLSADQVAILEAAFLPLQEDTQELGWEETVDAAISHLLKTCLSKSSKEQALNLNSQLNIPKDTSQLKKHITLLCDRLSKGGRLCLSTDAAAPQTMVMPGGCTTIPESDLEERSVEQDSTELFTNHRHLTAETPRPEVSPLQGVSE
# Variants of: B1
# Details: with pthb1_human BBS9, Q3SYG4
row,effect of a mutation on the interaction,Variant
1,with no effect,I561K
2,with no effect,D562E
3,with no effect,L563E
4,with no effect,L563K
5,with no effect,G565A
6,with no effect,G565E
7,with no effect,I567A
8,with no effect,I567K
9,with no effect,I568K
10,with no effect,Q569E
11,with no effect,Q569K
12,with no effect,S570A
13,with no effect,S570E
14,with no effect,M571A
15,with no effect,M571E
16,with no effect,M571K
17,with no effect,A572K
18,with no effect,S573A
19,with no effect,S573E
20,with no effect,S573K
21,with no effect,F574E
22,with no effect,F574K

row,effect of a mutation on the interaction,Variant
1,with no effect,F575E
2,with no effect,F575K
3,with no effect,A576E
4,with no effect,A576K
5,with no effect,E578A
6,with no effect,D579E
7,with no effect,L580A
8,with no effect,L580E
9,with no effect,V582K
10,with no effect,A584E
11,with no effect,D585A
12,with no effect,D585E
13,with no effect,D585K
14,with no effect,F586K
15,with no effect,P587K
16,with no effect,V588A
17,with no effect,Y589A
18,with no effect,Y589E
19,with no effect,F590E
20,with no effect,E591K
21,with no effect,E592K
22,with no effect,L593K

# More lines, now with the values behind:
row,Variant,effect of a mutation on the interaction
1,I561F,disrupting interaction strength
2,D562A,disrupting interaction strength
3,D562K,with no effect
4,D562V,disrupting interaction strength
5,L563A,with no effect
6,A564E,with no effect
7,A564K,with no effect
8,G565K,with no effect
9,D566A,with no effect
10,D566E,with no effect
11,D566K,with no effect
12,I567E,with no effect
13,I568A,with no effect
14,Q569A,with no effect
15,S570K,with no effect
16,S570L,disrupting interaction strength
17,A572E,with no effect
18,F574A,with no effect
19,F575A,with no effect
20,I577A,with no effect
21,I577E,with no effect
22,I577K,with no effect
23,E578K,with no effect
24,D579A,with no effect

row,Variant,effect of a mutation on the interaction
1,D579K,with no effect
2,L580K,with no effect
3,Q581A,with no effect
4,Q581E,with no effect
5,Q581K,with no effect
6,V582A,with no effect
7,V582E,with no effect
8,E583A,with no effect
9,E583K,with no effect
10,A584K,with no effect
11,F586A,with no effect
12,F586E,with no effect
13,P587A,with no effect
14,P587E,with no effect
15,V588E,with no effect
16,V588K,with no effect
17,Y589K,with no effect
18,F590A,with no effect
19,F590K,with no effect
20,E591A,with no effect
21,E592A,with no effect
22,L593A,with no effect
23,L593E,with no effect
24,R594A,with no effect
